Results published in publication PMC9204233, “Characterization of Catechol-1,2-Dioxygenase (Acdo1p) From Blastobotrys raffinosifermentans and Investigation of Its Role in the Catabolism of Aromatic Compounds” (Frontiers in Microbiology, 2022).

How the values were obtained:
[1] = target: Blastobotrys raffinosifermentans catechol-1,2-dioxygenase with C-terminal 6His-tag (Acdo1-6hp) (Blastobotrys raffinosifermentans LS3); assay: SEC; gel filtration on Superdex 200; 50 mM Tris (pH 8), 0.15 M NaCl; flow 1 mL/min; mass against a calibration curve (blue dextran, ferritin, catalase, bovine albumin, RNAse A, vitamin B12); 'indicative' molecular mass
[2] = target: T1, Acdo1-6hp (Acdo1p, catechol-1,2-dioxygenase) (Blastobotrys raffinosifermentans, UniProt A0A060T9I8); assay: spectrophotometric, 2-hydroxymuconic acid formation at […] nm; assay type: biochemical; details: 50 mM Tris-HCl pH 7.5, ~20 °C
T1 construct: expressed in B. raffinosifermentans G1212, HisTrap purified
T1 sequence (A0A060T9I8 1-334 limits assumed): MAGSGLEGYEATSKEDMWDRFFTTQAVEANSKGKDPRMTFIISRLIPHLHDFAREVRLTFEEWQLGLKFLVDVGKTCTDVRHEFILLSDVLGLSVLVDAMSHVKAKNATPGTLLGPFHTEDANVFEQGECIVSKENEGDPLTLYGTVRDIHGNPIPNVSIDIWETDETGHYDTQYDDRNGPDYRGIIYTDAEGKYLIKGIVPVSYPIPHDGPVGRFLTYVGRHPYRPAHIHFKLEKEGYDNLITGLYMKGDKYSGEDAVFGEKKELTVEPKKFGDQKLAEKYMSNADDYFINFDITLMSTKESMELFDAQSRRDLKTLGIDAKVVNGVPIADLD

Oc1ccc(O)c(O)c1 = assay: purified protein; details: pH 7.5, 20 °C
Oc1ccccc1O = assay: purified protein; details: 50 mM Tris-HCl pH 7.5, ~20 °C

Blastobotrys raffinosifermentans catechol-1,2-dioxygenase with C-terminal 6His-tag (Acdo1-6hp) (enzyme)
stoichiometry N [1]: 2

Oc1cccc(O)c1O [pyrogallol]
Km [2]: 100 ± 20 µM

Acdo1-6hp (Acdo1p, catechol-1,2-dioxygenase) (Blastobotrys raffinosifermentans)
Km (Oc1ccc(O)c(O)c1): 8 ± 2 µM | kcat (Oc1ccc(O)c(O)c1): 17 ± 3.5 s⁻¹ | kcat/Km (Oc1ccc(O)c(O)c1): 2.13e+06 ± 971000 M⁻¹ s⁻¹ | Km (Oc1ccccc1O): 4 ± 1 µM | kcat (Oc1ccccc1O): 15.6 ± 0.4 s⁻¹ | kcat/Km (Oc1ccccc1O): 3.95e+06 ± 930000 M⁻¹ s⁻¹
